# Results as given in patent publication US11752210B2, “Sensitizing composition using electromagnetic waves for thermal therapy of cancers, and cancer therapy using same” (JINIS CO., LTD., priority 2013, dated 2023).
# Assays:
# [1] = system: cancer cell line NCI-H460; assay: In vitro temperature elevation in cancer cells cultured with transferrin, after electromagnetic waves (Test Example 4); type: cell-based; settings: for increase in temperature before and after electromagnetic waves: cancer cell line, cultured 4 hr, washed, 100 W for 3 min
# Method: (§1) The temperature elevation by the metal ion-noncovalently bound apotransferrin was evaluated through in vitro cell testing. A cancer cell line […] Sciences) in which the transferrin receptor was over-expressed was cultured, and 0.1 ml of a cell suspension at a concentration of 1×10^3 cells/ml was aliquoted into a 96-well plate and cultured in a CO2 incubator at 37° C. for 12 hr. As a control, normal human cells, i.e. stromal cells, were cultured, and 0.1 ml thereof was aliquoted at a concentration of 3×10^3 cells/ml into a 96-well plate and cultured in a CO2 incubator at 37° C. for 12 hr. […] After completion of the culturing of transferrin and cells, each plate was washed with a DMEM medium, thus removing transferrin that was not introduced into the cells. Next, each plate was exposed to an energy dose of 100 W for 3 min using a radio-frequency hyperthermia system (EHY-2000, Oncothermia), and changes in the temperature were measured using a thermal imaging camera ([…], Korea Rental, Korea).
# [2] = system: NCI-H460-luc2 tumor xenograft; assay: Thermal cancer therapy with repeated sensitizer dosing, weekly bioluminescence imaging of tumor size over four weeks (Example 1, FIG. 13); type: in vivo, BALB/c athymic nude mice; settings: i.v. three times per week, 100 W 30 min or more
# Method: After 4 hr, thermal treatment for 30 min or more using a radio-frequency hyperthermia system (EHY-2000, Oncothermia) with an energy dose of 100 W was performed for a total of four weeks, and the size of tumorous tissue was monitored every week. […] In the group to which transferrin was administered, 0.1 ml of the transferrin aqueous solution having a concentration of 5 mg/ml was intravenously injected. As such, the non-treated group and the saline-treated group were used as controls.
# In order to analyze the size of tumorous tissue, bioluminescence imaging was regularly performed at an interval of one week, and analysis was performed using Igor Pro imaging analysis software.
# [3] = system: normal human cells, i.e. stromal cells; assay: In vitro temperature elevation in normal cells cultured with transferrin, after electromagnetic waves (Test Example 4); type: cell-based; settings: normal cell line; all concentrations (0 to 5 mg/ml); cultured 4 hr, washed; 100 W for 3 min
# Method: as §1
# [4] = system: NCI-H460-luc2 tumor xenograft; assay: Thermal cancer therapy with sensitizer, bioluminescence imaging of tumor size in the last week (Example 1, FIG. 12); type: in vivo, BALB/c athymic nude mice; settings: i.v. 1 mg/kg metal ion-bound material or 20 mg/kg transferrin, 100 W 10 min, three times per week, four weeks
# Method: Next, the potential to treat cancer was evaluated using the metal ion-bound material as the sensitizer upon thermal therapy. A lung cancer cell line NCI-H460-luc2 ([…] Sciences) was cultured, and 5×10^6 cells were subcutaneously injected into 6 to 8-week-old female BALB/c athymic nude mice (Damul Science), and the mice were bred for about 10 days so as to grow tumorous tissue to a size of 100 mm^3 or more, yielding the tumor xenograft animal models for the evaluation of cancer treatment effects. […] After 4 hr, thermal treatment was performed three times per week for a total of four weeks using a radio-frequency hyperthermia system (EHY-2000, Oncothermia) with an energy dose of 100 W for 10 min. As such, a non-treated group and a saline-treated group were set as controls. In order to analyze the size of tumorous tissue in the last week, bioluminescence imaging was performed. For bioluminescence of a luciferase-expressing cancer cell line NCI-H460-luc2, D-luciferin (Xenogen, USA) was intraperitoneally injected at a concentration of 150 mg luciferin/kg/d into the mice, the mice were anesthetized through inhalation using a mixture of isoflurane gas and oxygen, and luminous cancer cells were subjected to overlap photographing using a Xenogen imager (IVIS 200), and analyzed using Igor Pro imaging analysis software.
# [5] = In vivo accumulation of iron ion in normal and tumorous tissue after transferrin, ICP-MS (Test Example 6); parameters: species or system BALB/c athymic nude mice; concentration of iron ion (ICP-MS): unit not given here; settings: 16 mg/kg i.v., after 24 hr
# Method: In order to evaluate the accumulation capacity of “metal ion-noncovalently bound apotransferrin” (transferrin) in tumorous tissue, the iron-bound transferrin aqueous solution was administered to the mice, after which the concentrations of the metal ions were measured in normal tissue and tumorous tissue. The iron ion-bound apotransferrin (transferrin) aqueous solution was prepared at 4 mg/ml, and 0.1 ml thereof was intravenously injected in a dose of 16 mg/kg. After 24 hr, each tissue was sampled in the same manner as in Test Example 5 and the concentration of the metal ion was measured through ICP-MS (Varian 800-MS, Palo Alto, US).
# [6] = system: NCI-H460-luc2 tumor xenograft; assay: Temperature of normal and tumorous tissue of tumor xenograft mice on application of electromagnetic waves after sensitizer (Example 1, FIGS. 9 to 11); type: in vivo, BALB/c athymic nude mice; settings: i.v. iron sucrose 1 mg/kg or transferrin 20 mg/kg, 4 hr after administration, 100 W for 3 min
# Method: To this end, a lung cancer cell line NCI-H460-luc2 (Califer Life Sciences) was cultured, and 5×10^6 cells were subcutaneously injected into 6 to 8-week-old female BALB/c athymic nude mice (Damul Science), and the mice were bred for about 10 days so as to grow tumorous tissue to a size of 100 mm^3 or more, yielding the tumor xenograft animal models for the evaluation of cancer treatment effects.
# As the sensitizing composition for thermal therapy, iron sucrose was prepared in the same manner as in Test Example 1, and 0.1 ml of the iron sucrose aqueous solution having a concentration of 0.2 mg/ml was intravenously injected into the established tumor xenograft mice so as to reach a dose of 1 mg/kg.
# As the sensitizing composition for thermal therapy, “iron ion-bound apotransferrin” (transferrin) was prepared in the same manner as in Test Example 3, and 0.1 ml of the transferrin aqueous solution having a concentration of 5 mg/ml was intravenously injected into the established tumor xenograft mice so as to reach a dose of 20 mg/kg.
# As the control, saline was administered. 4 hr after administration, electromagnetic waves were applied in an energy dose of 100 W for 3 min using a radio-frequency hyperthermia system (EHY-2000, Oncothermia), and the temperatures of normal tissue and tumorous tissue were measured using a thermal imaging device (E60, Korea Rental, Korea).
substance,measurement,setting,value
transferrin: iron ion-bound apotransferrin prepared by reacting ferric hydroxide solution with apotransferrin at 37° C. for 30 min,"selectivity of temperature elevation depending on concentration, cancer vs normal cell line",[1]; FIGS. 5 to 8,more selective in the cancer cell line than in the normal cell line
same,increase in temperature before and after electromagnetic waves,[1]; 1 mg/ml,11.9 °C
same,increase in temperature before and after electromagnetic waves,[1]; 5 mg/ml,12.6 °C
same,growth of cancer upon thermal treatment using electromagnetic waves (bioluminescence imaging),"[2]; 0.1 ml of 0.2 mg/ml (iron dextran, iron sucrose) or 5 mg/ml (transferrin), four weeks",remarkably inhibited
same,size of cancer after four weeks (bioluminescence imaging),"[2]; 0.1 ml of 5 mg/ml, after four weeks",disappeared completely
same,change in temperature before and after electromagnetic waves,[3],about 7 °C
same,"cancer treatment effects through thermal therapy (size of tumorous tissue, bioluminescence imaging)",[4],excellent
same,Fold increase of iron ion vs saline,[5]; Brain,1.26
same,concentration of iron ion (ICP-MS),[5]; Brain,28.4 ± 3.5
same,Fold increase of iron ion vs saline,[5]; Heart,2.18
same,concentration of iron ion (ICP-MS),[5]; Heart,70.1 ± 12.3
same,Fold increase of iron ion vs saline,[5]; Kidney,0.72
same,concentration of iron ion (ICP-MS),[5]; Kidney,41.2 ± 1.7
same,Fold increase of iron ion vs saline,[5]; Liver,1.27
same,concentration of iron ion (ICP-MS),[5]; Liver,94.7 ± 8.1
same,Fold increase of iron ion vs saline,[5]; Lung,1.55
same,concentration of iron ion (ICP-MS),[5]; Lung,43.9 ± 17.9
same,Fold increase of iron ion vs saline,[5]; Muscle,0.87
same,concentration of iron ion (ICP-MS),[5]; Muscle,25.7 ± 5.2
same,Fold increase of iron ion vs saline,[5]; Stomach,1.67
same,concentration of iron ion (ICP-MS),[5]; Stomach,46.4 ± 14.9
same,concentration of iron ion (ICP-MS),[5]; Tumor,43.9 ± 9.7
same,Fold increase of iron ion vs saline,"[5]; Tumor, 16 mg/kg",≥ 3.2
same,Fold increase of iron ion vs saline,"[5]; Tumor, listed as Transferrin, 16 mg/kg",3.25
same,changes in the temperature before and after the application of electromagnetic waves,[6]; normal tissue,1 °C
same,changes in the temperature before and after the application of electromagnetic waves,[6]; tumorous tissue,2 °C
